# According to US8895281B2, “Method for preparing a site-specific physiologically active polypeptide conjugate” (Hanmi Science Co., Ltd, priority 2009, dated 2014):
# What was measured:
# [1] = target: GLP-1 receptor (CHO/GLP-1R cell line); assay: cell-based or functional assay
# GLP-1 receptors = target: T1, GLP-1 receptors (Homo sapiens, UniProt P43220); assay: In-vitro activity: cAMP increase in CHO/GLP-1R cells; assay type: cell-based; settings: CHO/GLP-1R cell line; cAMP measured at varying concentrations, EC50 values compared; control Byetta = 100
# T1 construct: expressed in transfected cells; host or cells: CHO (CHO/GLP-1R)
# T1 sequence (P43220 24-463): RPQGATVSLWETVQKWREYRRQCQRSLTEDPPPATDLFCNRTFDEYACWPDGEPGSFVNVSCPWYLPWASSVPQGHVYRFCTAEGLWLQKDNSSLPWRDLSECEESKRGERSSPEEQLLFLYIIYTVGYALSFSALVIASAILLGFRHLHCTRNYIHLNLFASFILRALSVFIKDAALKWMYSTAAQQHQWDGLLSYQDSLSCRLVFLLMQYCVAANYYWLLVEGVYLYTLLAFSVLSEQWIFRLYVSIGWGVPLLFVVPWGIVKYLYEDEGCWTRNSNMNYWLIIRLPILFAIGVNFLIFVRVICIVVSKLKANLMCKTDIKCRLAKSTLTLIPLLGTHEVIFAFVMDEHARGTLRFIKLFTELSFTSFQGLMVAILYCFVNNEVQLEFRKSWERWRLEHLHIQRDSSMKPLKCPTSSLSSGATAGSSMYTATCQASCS
# Protocol: To measure the efficacy of long acting preparation of exendin-4 by pegylation and pegylation site, a method for measuring the in-vitro activity was used. The measurement of in-vitro activity of GLP-1 is a method for measuring whether cAMP's in the cell was increased after treatment of GLP-1 to CHO cell lines to which GLP-1 receptors was cloned. Specifically, CHO/GLP-1R, a cell line in which […], was treated with GLP-1, exendin-4 and test materials described in Table 1 at varying concentrations.
# Byetta (Eli Lilly), sequence (P26349 48-86): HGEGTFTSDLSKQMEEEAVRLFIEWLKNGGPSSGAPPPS
In-vitro activity (%) (GLP-1 receptors),Substance,"In-vitro activity (%) (cAMP in CHO/GLP-1R cells, EC50 values compared) [1]"
–,Byetta (Eli Lilly) (from UniProt P26349 48-86) (peptide),100
77,imidazo-acetyl-exendin-4 [CA-exendin-4],–
